Residue numbers refer to the chain shown, from its start.
B1: DGL271 (bispecific antibody)
chain 1: EVQLLESGGGLVQPGGSLRLSCAASGFTFSDYYMTWIRQAPGKGLEWVSSISGGSTYYADSRKGRFTISRDNSENTLYLQMNSLRAEDTAVYYCARDFGVAGWFGQYGMDVWGQGTLVTVSSGGGGSGGGGSGGGGSQSVLTQPPSASGTPGQRVTISCTGSSSNIGAGYDVHWYQQLPGTAPKLLIYRSNQRPSGVPDRFSGSKSGTSASLAISGLRSEDEADYYCSSYAGNYNLVFGGGTKLTVLGGGGSGGGGSGGGGSGVECPPCPAPPVAGPSVFLFPPKPKDTLMISRTPEVTCVVVDVSHEDPEVQFNWYVDGVEVHNAKTKPREEQFNSTFRVVSVLTVVHQDWLNGKEYKCKVSNKGLPAPIEKTISKTKGQPREPQVYTLPPCREEMTKNQVSLWCLVKGFYPSDIAVEWESNGQPENNYKTTPPMLDSDGSFFLYSKLTVDKSRWQQGNVFSCSVMHEALHNHYTQKSLSLSPG
chain 2: B1 chain 1 with Y388C, C393S, W405S, L407A, Y446V
B2: DGL273 (bispecific antibody)
chain 1: EVQLLESGGGLVQPGGSLRLSCAASGFTFSIYAMSWVRQAPGKGLEWVSAISGSGGSTYYADSVKGRFTISRDNSKNTLYLQMNSLRAEDTAVYYCARDFDYWGQGTLVTVTSSGGGGSGGGGSGGGGSQSVLTQPPSASGTPGQRVTISCSGSSSNIGSNYVYWYQQLPGTAPKLLIYGNINRPSGVPDRFSGSKSGTSASLAISGLRSEDEADYYCAAWDDSLNGRVFGGGTKLTVLCPPCPAPEAAGAPSVFLFPPKPKDTLMISRTPEVTCVVVDVSHEDPEVKFNWYVDGVEVHNAKTKPREEQYNSTYRVVSVLTVLHQDWLNGKEYKCKVSNKALPAPIEKTISKAKGQPREPQVYTLPPCRDELTKNQVSLWCLVKGFYPSDIAVEWESNGQPENNYKTTPPVLDSDGSFFLYSKLTVDKSRWQQGNVFSCSVMHEALHNHYTQKSLSLSPGEPEA
chain 2: EVQLLESGGGLVQPGGSLRLSCAASGFTFSNAWMNWVRQAPGKGLEWVSSISSSSSYIYYADSVKGRFTISRDNSKNTLYLQMNSLRAEDTAVYYCARAVAAGGMFWGLDQWGQGTLVTVTSSGGGGSGGGGSGGGGSQSVLTQPPSASGTPGQRVTISCSGSRSNIGSNSVHWYQQLPGTAPKLLIYGNSNRPSGVPDRFSGSKSGTSASLAISGLRSEDEADYYCQSYDSSLNDHVVFGGGTKLTVLCPPCPAPEAAGAPSVFLFPPKPKDTLMISRTPEVTCVVVDVSHEDPEVKFNWYVDGVEVHNAKTKPREEQYNSTYRVVSVLTVLHQDWLNGKEYKCKVSNKALPAPIEKTISKAKGQPREPQVCTLPPSRDELTKNQVSLSCAVKGFYPSDIAVEWESNGQPENNYKTTPPVLDSDGSFFLVSKLTVDKSRWQQGNVFSCSVMHEALHNHYTQKSLSLSPGWSHPQFEK
B3: DGL274 (bispecific antibody)
chain 1: EVQLLESGGGLVQPGGSLRLSCAASGFTFSIYAMSWVRQAPGKGLEWVSAISGSGGSTYYADSVKGRFTISRDNSKNTLYLQMNSLRAEDTAVYYCARDFDYWGQGTLVTVTSSGGGGSGGGGSGGGGSQSVLTQPPSASGTPGQRVTISCSGSSSNIGSNYVYWYQQLPGTAPKLLIYGNINRPSGVPDRFSGSKSGTSASLAISGLRSEDEADYYCAAWDDSLNGRVFGGGTKLTVLPLAPCPPCPAPEAAGAPSVFLFPPKPKDTLMISRTPEVTCVVVDVSHEDPEVKFNWYVDGVEVHNAKTKPREEQYNSTYRVVSVLTVLHQDWLNGKEYKCKVSNKALPAPIEKTISKAKGQPREPQVYTLPPCRDELTKNQVSLWCLVKGFYPSDIAVEWESNGQPENNYKTTPPVLDSDGSFFLYSKLTVDKSRWQQGNVFSCSVMHEALHNHYTQKSLSLSPGEPEA
chain 2: EVQLLESGGGLVQPGGSLRLSCAASGFTFSNAWMNWVRQAPGKGLEWVSSISSSSSYIYYADSVKGRFTISRDNSKNTLYLQMNSLRAEDTAVYYCARAVAAGGMFWGLDQWGQGTLVTVTSSGGGGSGGGGSGGGGSQSVLTQPPSASGTPGQRVTISCSGSRSNIGSNSVHWYQQLPGTAPKLLIYGNSNRPSGVPDRFSGSKSGTSASLAISGLRSEDEADYYCQSYDSSLNDHVVFGGGTKLTVLPLAPCPPCPAPEAAGAPSVFLFPPKPKDTLMISRTPEVTCVVVDVSHEDPEVKFNWYVDGVEVHNAKTKPREEQYNSTYRVVSVLTVLHQDWLNGKEYKCKVSNKALPAPIEKTISKAKGQPREPQVCTLPPSRDELTKNQVSLSCAVKGFYPSDIAVEWESNGQPENNYKTTPPVLDSDGSFFLVSKLTVDKSRWQQGNVFSCSVMHEALHNHYTQKSLSLSPGWSHPQFEK
B4: DGL275 (bispecific antibody)
chain 1: not shown
chain 2: EVQLLESGGGLVQPGGSLRLSCAASGFTFSDYYMTWIRQAPGKGLEWVSSISGGSTYYADSRKGRFTISRDNSENTLYLQMNSLRAEDTAVYYCARDFGVAGWFGQYGMDVWGQGTLVTVSSGGGGSGGGGSGGGGSQSVLTQPPSASGTPGQRVTISCTGSSSNIGAGYDVHWYQQLPGTAPKLLIYRSNQRPSGVPDRFSGSKSGTSASLAISGLRSEDEADYYCSSYAGNYNLVFGGGTKLTVLDKTHTCPPCPAPEAAGAPSVFLFPPKPKDTLMISRTPEVTCVVVDVSHEDPEVKFNWYVDGVEVHNAKTKPREEQYNSTYRVVSVLTVLHQDWLNGKEYKCKVSNKALPAPIEKTISKAKGQPREPQVCTLPPSRDELTKNQVSLSCAVKGFYPSDIAVEWESNGQPENNYKTTPPVLDSDGSFFLVSKLTVDKSRWQQGNVFSCSVMHEALHNHYTQKSLSLSPGWSHPQFEK
B5: DGL276 (bispecific antibody)
chain 1: EVQLLESGGGLVQPGGSLRLSCAASGFTFSSYAMSWVRQAPGKGLEWVANINQDGSEKNYVDSMRGRFTISRDNSKNTLYLQMNSLRAEDTAVYYCAREFDYWGQGTLVTVTSSGGGGSGGGGSGGGGSQSVLAQPPSASGTPGQRVTISCSGSSSNIGSNYVYWYQQLPGTAPKLLIYGNNKRPSGVPDRFSGSKSGTSASLAISGLRSEDEADYYCAAWDDSLNGRVFGGGTKLTVLCPPCPAPEAAGAPSVFLFPPKPKDTLMISRTPEVTCVVVDVSHEDPEVKFNWYVDGVEVHNAKTKPREEQYNSTYRVVSVLTVLHQDWLNGKEYKCKVSNKALPAPIEKTISKAKGQPREPQVYTLPPCRDELTKNQVSLWCLVKGFYPSDIAVEWESNGQPENNYKTTPPVLDSDGSFFLYSKLTVDKSRWQQGNVFSCSVMHEALHNHYTQKSLSLSPGEPEA
chain 2: EVQLLESGGGLVQPGGSLRLSCAASGFTFSDYYMTWIRQAPGKGLEWVSSISGGSTYYADSRKGRFTISRDNSENTLYLQMNSLRAEDTAVYYCARDFGVAGWFGQYGMDVWGQGTLVTVSSGGGGSGGGGSGGGGSQSVLTQPPSASGTPGQRVTISCTGSSSNIGAGYDVHWYQQLPGTAPKLLIYRSNQRPSGVPDRFSGSKSGTSASLAISGLRSEDEADYYCSSYAGNYNLVFGGGTKLTVLCPPCPAPEAAGAPSVFLFPPKPKDTLMISRTPEVTCVVVDVSHEDPEVKFNWYVDGVEVHNAKTKPREEQYNSTYRVVSVLTVLHQDWLNGKEYKCKVSNKALPAPIEKTISKAKGQPREPQVCTLPPSRDELTKNQVSLSCAVKGFYPSDIAVEWESNGQPENNYKTTPPVLDSDGSFFLVSKLTVDKSRWQQGNVFSCSVMHEALHNHYTQKSLSLSPGWSHPQFEK
B6: DGL277 (bispecific antibody)
chain 1: EVQLLESGGGLVQPGGSLRLSCAASGFTFSSYAMSWVRQAPGKGLEWVANINQDGSEKNYVDSMRGRFTISRDNSKNTLYLQMNSLRAEDTAVYYCAREFDYWGQGTLVTVTSSGGGGSGGGGSGGGGSQSVLAQPPSASGTPGQRVTISCSGSSSNIGSNYVYWYQQLPGTAPKLLIYGNNKRPSGVPDRFSGSKSGTSASLAISGLRSEDEADYYCAAWDDSLNGRVFGGGTKLTVLPLAPCPPCPAPEAAGAPSVFLFPPKPKDTLMISRTPEVTCVVVDVSHEDPEVKFNWYVDGVEVHNAKTKPREEQYNSTYRVVSVLTVLHQDWLNGKEYKCKVSNKALPAPIEKTISKAKGQPREPQVYTLPPCRDELTKNQVSLWCLVKGFYPSDIAVEWESNGQPENNYKTTPPVLDSDGSFFLYSKLTVDKSRWQQGNVFSCSVMHEALHNHYTQKSLSLSPGEPEA
chain 2: EVQLLESGGGLVQPGGSLRLSCAASGFTFSDYYMTWIRQAPGKGLEWVSSISGGSTYYADSRKGRFTISRDNSENTLYLQMNSLRAEDTAVYYCARDFGVAGWFGQYGMDVWGQGTLVTVSSGGGGSGGGGSGGGGSQSVLTQPPSASGTPGQRVTISCTGSSSNIGAGYDVHWYQQLPGTAPKLLIYRSNQRPSGVPDRFSGSKSGTSASLAISGLRSEDEADYYCSSYAGNYNLVFGGGTKLTVLPLAPCPPCPAPEAAGAPSVFLFPPKPKDTLMISRTPEVTCVVVDVSHEDPEVKFNWYVDGVEVHNAKTKPREEQYNSTYRVVSVLTVLHQDWLNGKEYKCKVSNKALPAPIEKTISKAKGQPREPQVCTLPPSRDELTKNQVSLSCAVKGFYPSDIAVEWESNGQPENNYKTTPPVLDSDGSFFLVSKLTVDKSRWQQGNVFSCSVMHEALHNHYTQKSLSLSPGWSHPQFEK
B7: DGL278 (bispecific antibody, human IgG1, lambda)
heavy: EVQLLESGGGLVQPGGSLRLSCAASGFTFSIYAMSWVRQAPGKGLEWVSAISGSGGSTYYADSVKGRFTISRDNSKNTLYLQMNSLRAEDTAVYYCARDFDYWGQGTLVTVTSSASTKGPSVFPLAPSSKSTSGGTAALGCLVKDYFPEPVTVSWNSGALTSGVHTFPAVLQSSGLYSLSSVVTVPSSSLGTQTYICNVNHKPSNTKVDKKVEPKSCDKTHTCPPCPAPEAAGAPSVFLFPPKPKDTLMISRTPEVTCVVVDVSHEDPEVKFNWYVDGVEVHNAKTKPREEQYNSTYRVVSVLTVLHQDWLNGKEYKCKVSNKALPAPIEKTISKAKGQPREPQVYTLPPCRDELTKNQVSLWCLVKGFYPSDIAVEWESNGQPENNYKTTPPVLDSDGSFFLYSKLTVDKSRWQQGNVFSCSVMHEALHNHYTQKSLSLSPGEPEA
light: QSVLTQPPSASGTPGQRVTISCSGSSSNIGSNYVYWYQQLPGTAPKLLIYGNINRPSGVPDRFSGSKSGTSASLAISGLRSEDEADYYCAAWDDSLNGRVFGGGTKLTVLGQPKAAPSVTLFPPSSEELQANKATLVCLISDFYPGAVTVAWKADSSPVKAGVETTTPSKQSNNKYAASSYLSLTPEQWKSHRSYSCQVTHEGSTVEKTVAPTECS
chain: EVQLLESGGGLVQPGGSLRLSCAASGFTFSIYAMSWVRQAPGKGLEWVSAISGSGGSTYYADSVKGRFTISRDNSKNTLYLQMNSLRAEDTAVYYCARDFDYWGQGTLVTVTSSGGGGSGGGGSGGGGSQSVLTQPPSASGTPGQRVTISCSGSSSNIGSNYVYWYQQLPGTAPKLLIYGNINRPSGVPDRFSGSKSGTSASLAISGLRSEDEADYYCAAWDDSLNGRVFGGGTKLTVLDKTHTCPPCPAPEAAGAPSVFLFPPKPKDTLMISRTPEVTCVVVDVSHEDPEVKFNWYVDGVEVHNAKTKPREEQYNSTYRVVSVLTVLHQDWLNGKEYKCKVSNKALPAPIEKTISKAKGQPREPQVCTLPPSRDELTKNQVSLSCAVKGFYPSDIAVEWESNGQPENNYKTTPPVLDSDGSFFLVSKLTVDKSRWQQGNVFSCSVMHEALHNHYTQKSLSLSPGKWSHPQFEK

target: ALK-1/BMPR-2 receptor pair of the PathHunter U2Os dimerization cells (DiscoverX 93-0962C3) (UniProt P37023 22-503; Q13873 27-1038); test: cell-based or functional assay
Sequence (P37023 22-503, chain 1 of 2): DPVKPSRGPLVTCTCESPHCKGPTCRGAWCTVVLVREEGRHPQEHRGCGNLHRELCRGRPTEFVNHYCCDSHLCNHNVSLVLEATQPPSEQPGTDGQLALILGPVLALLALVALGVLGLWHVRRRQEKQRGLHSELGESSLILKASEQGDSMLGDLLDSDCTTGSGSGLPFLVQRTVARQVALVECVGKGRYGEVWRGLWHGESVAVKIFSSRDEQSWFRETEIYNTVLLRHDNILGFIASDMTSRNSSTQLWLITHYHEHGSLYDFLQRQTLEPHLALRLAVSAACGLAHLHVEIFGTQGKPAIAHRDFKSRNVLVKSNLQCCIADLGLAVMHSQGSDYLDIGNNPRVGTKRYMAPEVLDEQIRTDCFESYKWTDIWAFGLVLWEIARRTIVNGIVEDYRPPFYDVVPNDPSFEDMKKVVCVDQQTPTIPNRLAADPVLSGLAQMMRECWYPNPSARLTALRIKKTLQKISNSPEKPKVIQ
Sequence (Q13873 27-1038, chain 2 of 2): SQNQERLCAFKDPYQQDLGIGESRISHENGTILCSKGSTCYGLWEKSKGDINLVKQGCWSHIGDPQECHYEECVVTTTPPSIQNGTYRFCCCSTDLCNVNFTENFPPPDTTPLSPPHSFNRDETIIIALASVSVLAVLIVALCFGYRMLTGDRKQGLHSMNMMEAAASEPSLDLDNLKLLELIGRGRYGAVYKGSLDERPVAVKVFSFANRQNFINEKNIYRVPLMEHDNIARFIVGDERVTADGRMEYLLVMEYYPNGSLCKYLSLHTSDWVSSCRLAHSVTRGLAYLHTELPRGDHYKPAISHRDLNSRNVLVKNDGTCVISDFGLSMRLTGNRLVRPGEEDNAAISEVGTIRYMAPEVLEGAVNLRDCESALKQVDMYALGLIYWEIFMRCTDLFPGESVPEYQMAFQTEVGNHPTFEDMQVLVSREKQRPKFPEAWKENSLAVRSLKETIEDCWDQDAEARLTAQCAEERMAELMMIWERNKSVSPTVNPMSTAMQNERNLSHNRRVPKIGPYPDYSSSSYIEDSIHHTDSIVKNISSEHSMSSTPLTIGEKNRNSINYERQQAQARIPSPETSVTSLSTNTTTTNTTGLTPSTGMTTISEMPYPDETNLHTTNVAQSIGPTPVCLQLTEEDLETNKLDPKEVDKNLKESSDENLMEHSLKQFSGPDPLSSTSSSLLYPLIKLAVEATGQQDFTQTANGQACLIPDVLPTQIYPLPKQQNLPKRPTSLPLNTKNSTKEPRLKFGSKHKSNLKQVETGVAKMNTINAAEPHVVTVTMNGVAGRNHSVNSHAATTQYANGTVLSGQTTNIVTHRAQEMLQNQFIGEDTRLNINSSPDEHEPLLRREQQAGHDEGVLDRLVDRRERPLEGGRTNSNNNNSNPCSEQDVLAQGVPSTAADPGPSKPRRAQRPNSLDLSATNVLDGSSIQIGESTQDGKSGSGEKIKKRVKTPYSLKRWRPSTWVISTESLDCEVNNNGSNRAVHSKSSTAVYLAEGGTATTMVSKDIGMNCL

Row | Binder | % Emax BMP9 | Emax (RLU) | EC50
1 | B1 | 2% | 55900 RLU | 
2 | B2 | 46% | 1.22e+06 RLU | 4.2 nM
3 | B3 | 47% | 1.25e+06 RLU | 1.7 nM
4 | B4 | 48% | 1.28e+06 RLU | 0.9 nM
5 | B5 | 43% | 1.14e+06 RLU | 1.2 nM
6 | B6 | 51% | 1.35e+06 RLU | 1 nM
7 | B7 | 26% | 684000 RLU | 14 nM

Reference: patent publication US20250002588A1 (DIAGONAL THERAPEUTICS, published 2025)
